Publication PMC3123277, “Engineering Klebsiella sp. 601 multicopper oxidase enhances the catalytic efficiency towards phenolic substrates” (BMC Biochemistry, 2011)

Assays:
[1] = target: T1, Klebsiella sp. 601 MCO (multicopper oxidase) (Klebsiella sp. 601, UniProt B0FMT2); assay: spectrophotometric oxidation assay, Lineweaver-Burk; format: biochemical; conditions: pH 5.0, 50 mM acetate, 37°C, 0.2 mM CuSO4; read-out: Wild-type
T1 sequence (B0FMT2 29-536): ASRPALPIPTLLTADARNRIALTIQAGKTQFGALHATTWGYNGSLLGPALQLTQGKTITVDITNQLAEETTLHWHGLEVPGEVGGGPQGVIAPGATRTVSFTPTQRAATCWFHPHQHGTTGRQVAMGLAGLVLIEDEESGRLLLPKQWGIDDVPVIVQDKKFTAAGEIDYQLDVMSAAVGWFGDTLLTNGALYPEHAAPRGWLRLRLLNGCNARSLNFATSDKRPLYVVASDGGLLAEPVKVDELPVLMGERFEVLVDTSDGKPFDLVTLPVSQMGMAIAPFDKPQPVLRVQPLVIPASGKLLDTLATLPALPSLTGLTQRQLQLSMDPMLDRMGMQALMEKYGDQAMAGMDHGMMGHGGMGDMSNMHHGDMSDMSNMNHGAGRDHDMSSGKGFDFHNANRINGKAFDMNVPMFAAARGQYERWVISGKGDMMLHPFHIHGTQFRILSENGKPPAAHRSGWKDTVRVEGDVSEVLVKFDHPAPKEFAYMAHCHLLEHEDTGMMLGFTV
From the text: (§1) spectrophotometric oxidation assay, Lineweaver-Burk on Klebsiella sp. 601 MCO (multicopper oxidase)

[2] = target: Klebsiella sp. 601 MCO (multicopper oxidase) (Klebsiella sp. 601, UniProt B0FMT2, R361G/M362G/L367G/M368G/E369P/M376K/M379P); conditions: read-out: α351-380M; pH 5.0, 50 mM acetate, 37°C, 0.2 mM CuSO4
From the text: as §1

[3] = target: Klebsiella sp. 601 MCO (multicopper oxidase) (Klebsiella sp. 601, UniProt B0FMT2, E106F); conditions: read-out: E106F; pH 5.0, 50 mM acetate, 37°C, 0.2 mM CuSO4
From the text: as §1

[4] = system: CCn1c(=NN=c2sc3cc(S(=O)(=O)O)ccc3n2CC)sc2cc(S(=O)(=O)O)ccc21; assay: purified protein; conditions: pH 3.6, 50 mM acetic acid-sodium acetate, 37°C, 0.2 mM CuSO4
[5] = substrate: COc1cc(C=NN=Cc2cc(OC)c(O)c(OC)c2)cc(OC)c1O; assay: spectrophotometric oxidation assay, Lineweaver-Burk; format: biochemical, Klebsiella sp. 601; conditions: pH 6.8, 50 mM phosphate, 37°C, 0.2 mM CuSO4, pH 6.8
From the text: as §1

[6] = substrate: CCn1c(=NN=c2sc3cc(S(=O)(=O)O)ccc3n2CC)sc2cc(S(=O)(=O)O)ccc21; assay: as above; format: biochemical, Klebsiella sp. 601; conditions: pH 3.0, 50 mM acetic acid-sodium acetate, 37°C, 0.2 mM CuSO4, pH 3.0
From the text: as §1

`COc1cccc(OC)c1O` [DMP] showed a Km [1] of 2850 µM, a Km [2] of 639 ± 17 µM and a Km [3] of 1180 µM.

“Klebsiella sp. 601 MCO (multicopper oxidase) (Klebsiella sp. 601; E369P/L367G/M362G/M368G/M376K/M379P/R361G)” was tested, and the Km [4] was 284 ± 6.2 µM.

“Klebsiella sp. 601 MCO (multicopper oxidase) (Klebsiella sp. 601; E106F)” gave a Km [4] of 159 ± 1.0 µM and a kcat/Km [4] of 2.05e+08 M⁻¹ s⁻¹.

B1: Klebsiella sp. 601 MCO (multicopper oxidase) (Klebsiella sp. 601) (protein)
chain: T1 sequence (B0FMT2 29-536)
With B1 the Km [5] was 11.67 ± 0.2 µM, the kcat [5] was 10.8 ± 0.1 s⁻¹ and the kcat/Km [5] was 930000 M⁻¹ s⁻¹. The Km [6] was 539 ± 5.0 µM and the kcat/Km [6] was 1.27e+08 M⁻¹ s⁻¹.
